{"source": "patent US12495796B2", "about": "“Compositions, methods, and applications of a synthetic surfactant” (1283581 B.C. LTD, priority 2019, dated 2025)", "molecules": {"B1": {"name": "RSN 5: recombinant mature ranaspumin protein without signal peptide, Synthetic Amino Acid Sequence No. 5 (protein, listed as Engystomops pustulosus)", "chain": "GAPGGAAGPLLVLNILGSVVHETKPPEGVNLALKGIASSDSIASNGSVTGLAAKAIDGIRVSDFFKGHCSLTNGLNNPTWWKVDLKKSYKISSVFVTNRDDCCTERLLHAEIRIGSNPDHNHNPICAEVKTVASSNIGFCCGGMEGRYVSVSVPRKEQLSLCEVEVYGDLKKVLHCA"}, "B2": {"name": "RSN 4: recombinant mature ranaspumin protein without signal peptide, Synthetic Amino Acid Sequence No. 4 (protein, listed as Engystomops pustulosus)", "chain": "DRNLALDGRATMSSIWMDPDIRQSFLGVAMNGIDGNTDSVYFHGSCFHTGLDSPAWYRVDLLRTSKISSITITNRGDFGSRTNGAEIRIGDSLANNGNNNPRCALVTSIADGETRTFQCNNMVGRYVNIVLTGKTEFLHLCEVQIFGENLPRSFSCQYSNDGMITLLVSTRFMK"}, "B3": {"name": "RSN 1: recombinant mature ranaspumin protein without signal peptide, Synthetic Amino Acid Sequence No. 1 (protein, listed as Engystomops pustulosus)", "chain": "GGGNIGGGAKLGPEKPATPGIQDLLKSLLSVLNLSPPAIPEDAEAVSYRDAKNGKFRLIKIHLGGELYCHVKQIAGPILALPIVSDVVEVTGKECGKTEDDPLEDFPIP"}, "B4": {"name": "RSN 2: recombinant mature ranaspumin protein without signal peptide, Synthetic Amino Acid Sequence No. 2; main surfactant (protein, listed as Engystomops pustulosus)", "chain": "LILDGDLLKDKLKLPVIDNLFGKELLDKFQDDVKDKYGVDTKDLKILKTSEDKRFYYVSVDAGDGEKCKFKIRKDVDVPKMVGRKCRKDDDDDDGY"}, "B5": {"name": "RSN 3: recombinant mature ranaspumin protein without signal peptide, Synthetic Amino Acid Sequence No. 3 (protein, listed as Engystomops pustulosus)", "chain": "IDPTGLVQILLLEQVVHKIPPGNINLARTGIATQDSDYTASAVPSEARLAIDGNRNSDFNQKSCSHTGGNEPAWWRLELKKKSKISVVVIAIRSDCCMDRFKGAELRIGNSQDATVNPICGKVSAVKGSNYLFCCDGMEGKYISVVIPDRHEFLSLCEVEVYGAKPIEGTHCK"}, "B6": {"name": "RSN 6: recombinant mature ranaspumin protein without signal peptide, Synthetic Amino Acid Sequence No. 6 (protein, listed as Engystomops pustulosus)", "chain": "ETLCIPGRMKQLDAGAGRVVAVKSNGDVYQLLENNWVQIPGKLIHVTVGPAGLWGVNKDKNIYKYVDNDWLQVDGLLNQIDAGGNRFVVGVNDNEDIFCLNQDQTTSNAVKLDYKGVDGKLKYYSSGGYGSWGVNAAYDIFYRRNVHPMSCQGTNWENVEGKLVMLEVAEDGSVYGVNYNGHVYKREGITAGNPMGTSWTYLKVDEKVRHVSYDRGVLYVVTIDDRIFRC"}}, "key": {"[1]": {"test": "Retention of pesticide (Bifenazate) in leaves with RSN 1-6 mixture as adjuvant, GC/MS quantification", "assay_type": "in vivo, Arabidopsis thaliana (columbia ecotype)", "details": "Floramite + RSN 1-6 mixture vs pesticide alone", "method": "12 four-week-old Arabidopsis thaliana (columbia ecotype) plants were used for the experiment. (6 control, 6 experimental) (FIG. 13).\nGrowth condition: plants were grown in soil at in 16-hour days/8-hour nights light cycle with temperatures of 22° C. Lighting was provided with fluorescent bulbs giving an average light intensity of 175 micromoles/meter^2 second. Seeds were cold treated (stratification) for 3 days at 4° C. after imbibition to synchronize germination\nThe experimental plants were applied with a mixture of Floramite® and RSN 1-6 mixture (50 μL of 10 mg/mL) directly to the leaves using a pipette. The control plants were applied with just the pesticide. Samples were collected at the end of 5 days and 10 days.\n4 control leaves and 4 experimental leaves were collected at the end of 5 days and 10 days of application. The leaves were homogenized using liquid nitrogen and extracted using Methanol:Chloroform mix (2:1) (FIG. 14). […]\nA GC/MS instrument (Thermo Focus GC, Polaris ion trap MS) with a DB-5 column was used for quantification of the pesticide. […]\nConcentration of Bifenazate in control leaf sample −0.018 μg/μL (FIG. 15). […] Concentrations were calculated using the peak area of the internal standard compared to the peak area of the pesticide. The experimental leaf was calculated to have a 3.6 times the amount of Bifenazate when compared to the control leaf."}, "E. coli": {"test_system": "E. coli", "test": "Kirby Bauer antimicrobial assay (disk-diffusion) on E. coli culture plates", "assay_type": "cell-based, Escherichia coli", "details": "24 hours; for antimicrobial properties / radius of resistance to the E. coli colonies: 20 μL of 10 mg/mL on filter paper disc, 37° C.; for effect on E. coli colonies (kills or slows growth): conclusion from disk-diffusion; for resistance to E. coli (in words): growth of colonies near the filter paper disc", "method": "Antimicrobial agents stop the growth or kill microorganisms such as Escherichia coli (E. coli). The Kirby Bauer antimicrobial assay or disk-diffusion method is used to test what antibiotic will fight against which bacteria strain.^17 The Kirby Bauer antimicrobial assay, is most commonly used to monitor the growth of bacteria growth around a disk, measuring the radius/diameter of the growth from the disk if a gap is present; this can be done in a time period as short as 24 hours or as long as 5 days.^18\nRSN mixture was prepared using equal parts of each protein (RSN 1-6) in a concentration of 10 mg/mL and vortexed until combined.^22 E. coli culture plates were prepared and allowed to dry, small filter paper circles were placed on the plate, with a 20 μL of the RSN sample labeled RSN 1-6.\nOnce the protein was placed on the E. coli culture plates, the plates were placed into a new Brunswick Scientific Excella E24 Incubator Shaker set at 37° C., for 24 hours. After 24 hours the plates were taken out of the incubator shaker and observed."}, "[2]": {"test": "Denaturing of ranaspumin proteins with increasing temperature, monitored by circular dichromium (CD)", "assay_type": "physicochemical", "details": "CD 200-300 nm, 0.25 mg/mL, 20-90° C. in 5° C. steps", "method": "The secondary structure of ranaspumin proteins can be confirmed with CD to identify if there is a presence of an α-helix, β-sheets or random coils. The CD can also be used to monitor the denaturing of a protein structure by observing the intensity of the bands on the spectra. This experiment uses increasing temperature to determine when ranaspumin proteins start to denature in the secondary structure with the use of a CD spectrum. A 3 mL solution with a concentration of 0.25 mg/mL of RSN 1-6 was diluted from a range of 2.69 mg/mL-0.50 mg/mL stock solution. The Jasco 815 […], with Jasco temperature controller and a water bath attachment was used to analyze the RSN 2 protein structure. The initial temperature was set to 20° C., the wavelength was set to 200-300 nm and the temperature was increased by 5° C. after each measurement and allowing for 60 seconds of stability before recording the next measurement, in a temperature range of 20-90° C. A bank was run for a baseline before a 1.5 mL solution was run through the CD and the spectra were monitored for a change in intensity in the bands."}}, "data": [{"molecule": "COc1ccc(-c2ccccc2)cc1NNC(=O)OC(C)C", "note": "[Bifenazate]", "values": [{"measurement": "amount of Bifenazate in experimental leaf compared to control leaf", "setting": "[1]; after 5 days", "result": 3.6, "unit": "times"}, {"measurement": "amount of Bifenazate in experimental leaf compared to control leaf", "setting": "[1]; after 10 days", "result": 1.2, "unit": "times"}]}, {"molecule": "B1", "values": [{"measurement": "antimicrobial properties", "setting": "E. coli", "result": "presented antimicrobial properties"}, {"measurement": "radius of resistance to the E. coli colonies", "setting": "E. coli", "result": 0.7, "unit": "cm"}, {"measurement": "effect on E. coli colonies (kills or slows growth)", "setting": "E. coli", "result": "slows the rate of the growth of the E. coli colonies"}, {"measurement": "resistance to E. coli (in words)", "setting": "E. coli", "result": "moderate resistance"}, {"measurement": "temperature at which the protein fully denatures", "setting": "[2]", "result": 70, "unit": "°C"}]}, {"molecule": "B2", "values": [{"measurement": "antimicrobial properties", "setting": "E. coli", "result": "did not show any antimicrobial properties"}, {"measurement": "temperature at which the protein denatures further", "setting": "[2]", "result": 90, "unit": "°C"}, {"measurement": "temperature at which the protein starts to denature", "setting": "[2]", "result": 50, "unit": "°C"}]}, {"molecule": "B3", "values": [{"measurement": "antimicrobial properties", "setting": "E. coli", "result": "did not show any antimicrobial properties"}, {"measurement": "temperature at which the protein denatures further", "setting": "[2]", "result": 70, "unit": "°C"}, {"measurement": "temperature at which the protein starts to denature", "setting": "[2]", "result": 50, "unit": "°C"}]}, {"molecule": "B4", "values": [{"measurement": "antimicrobial properties", "setting": "E. coli", "result": "presented antimicrobial properties"}, {"measurement": "radius of resistance to the E. coli colonies", "setting": "E. coli", "result": 1.1, "unit": "cm"}, {"measurement": "effect on E. coli colonies (kills or slows growth)", "setting": "E. coli", "result": "kills the E. coli colonies"}, {"measurement": "resistance to E. coli (in words)", "setting": "E. coli", "result": "high resistance"}, {"measurement": "temperature at which the protein starts to denature", "setting": "[2]", "result": 70, "unit": "°C"}]}, {"molecule": "B5", "values": [{"measurement": "antimicrobial properties", "setting": "E. coli", "result": "did not show any antimicrobial properties"}, {"measurement": "temperature at which the protein fully denatures", "setting": "[2]", "result": 70, "unit": "°C"}, {"measurement": "temperature at which the protein starts to denature", "setting": "[2]", "result": 70, "unit": "°C"}]}, {"molecule": "B6", "values": [{"measurement": "antimicrobial properties", "setting": "E. coli", "result": "did not show any antimicrobial properties"}, {"measurement": "secondary structure staying intact up to", "setting": "[2]", "result": "30-39 °C"}, {"measurement": "slowly denatures until", "setting": "[2]", "result": 90, "unit": "°C"}, {"measurement": "temperature at which the protein starts to denature", "setting": "[2]", "result": 40, "unit": "°C"}]}]}
